Source: US20260209311A1 (published 2026)

Biological target: GPR75-GFP10-11 modified protein complex (UniProt O95800 1-395; P42212 3-196 = GFP)
Assay: SPR; steady state affinity

B1: CCL5 ligand (ligand)
chain: SPYSSDTTPCCFAYIARPLPRAHIKEYFYTSGKCSNPAVVFVTRKNRQVCANPEKKWVREYINSLEMS
  Kd: 0.388 nM
